The text below walks through data of patent publication US9308238B2, “Compositions and methods for modulating EMT and uses thereof” (Whitehead Institute for Biomedical Research, priority 2010, dated 2016).

In assay [1] the test system is MSP-RAS cells. In words: Subcutaneous tumorigenicity assay with proteins co-implanted and injected peri-tumorally. As to conditions: subcutaneous limiting dilutions with protein; peri-tumoral injection at 1, 2, 3 and 7 days. Type of assay: in vivo, mice. The protocol: FIGS. 4A-4G. Autocrine Signaling controls tumorigenicity and metastasis of MSP-RAS cells. (FIG. 4A) Migration assay: RAS-transformed MSP (MSP-RAS) were seeded in Boyden Chamber migration assays and recombinant SFRP1 (1 μg/ml) and BMP4 protein (0.5 μg/ml) were added; *control vs. single treatment, p<1×10^−8, **single vs. double treatment with SFRP1 and BMP4 (S+B), p<1×10^−4, n=3. […] (FIG. 4E) Lung metastasis: fluorescence microscopy images of the major left lung lobe showing GFP-expressing metastatic nodules and quantification of the number of lung surface metastases; *control vs. SFRP1 treatment, p<0.05, **SFRP1 vs. BMP4 or double treatment (S+B), p<0.05, n=5 mice/group. (FIG. 4F) Liver metastasis: fluorescence microscopy images of the liver surface showing GFP-expressing micro-metastatic nodules after implantation of cells as described in (D) and quantification: 5 fields of liver surface were counted per mouse, *control vs. single treatment, p<0.05, **single vs. double treatment (S+B), p<0.05, n=5 mice/group. […]
Animal studies. […] Lung surface metastases were counted using a fluorescent microscope within 3 hr of specimen isolation.

Assay [2] deals with primary MECs. In words: Proliferation of primary MECs. It counts as cell-based, human. As to conditions: data not shown. From the text: We also undertook to test whether the autocrine loops operating in HTwist and MSP cells enabled basal MECs to maintain their self-renewal and migratory abilities. […] In addition, we blocked autocrine Wnt signaling through application of recombinant SFRP1. After a 5-day, daily treatment with both TGF-beta inhibitors or SFRP1 in monolayer cultures, basal cells were submitted to migration and mammosphere assays in the absence of further treatment.
Primary mammary epithelial cell culture. Single-cell suspensions of primary human mammary epithelial cells (MECs) were generated from reduction mammoplasties of pre-menopausal women as previously described (Stingl et al., 2001), Data from three donors are included in this study. Primary MECs were cultured on collagen I-coated plates (Millipore) in MEGM medium (Lonza) supplemented with 1% Fetal Bovine Serum in a humidified 4% O2, 5% CO2, atmosphere.

B1: BMP4: Recombinant BMP4 protein obtained from Stemgent (protein, UniProt P12644 293-408, looked up)
Bone morphogenetic protein 4: SPKHHSQRARKKNKNCRRHSLYVDFSDVGWNDWIVAPPGYQAFYCHGDCPFPLADHLNSTNHAIVQTLVNSVNSSIPKACCVPTELSAISMLYLDEYDKVVLKNYQEMVVEGCGCR
Turning to B1, the “reduction of tumor incidence” value in assay [1] is “at least one order of magnitude”. In addition, in assay [2], the “effect on proliferation of primary MECs” value was “strong anti-proliferative effect”.

B2: SFRP1: Recombinant human SFRP1 protein (R&D Systems), secreted decoy receptor binding canonical and non-canonical Wnt ligands (protein, UniProt Q8N474 32-314, looked up)
Secreted frizzled-related …: SEYDYVSFQSDIGPYQSGRFYTKPPQCVDIPADLRLCHNVGYKKMVLPNLLEHETMAEVKQQASSWVPLLNKNCHAGTQVFLCSLFAPVCLDRPIYPCRWLCEAVRDSCEPVMQFFGFYWPEMLKCDKFPEGDVCIAMTPPNATEASKPQGTTVCPPCDNELKSEAIIEHLCASEFALRMKIKEVKKENGDKKIVPKKKKPLKLGPIKKKDLKKLVLYLKNGADCPCHQLDNLSHHFLIMGRKVKSQYLLTAIHKWDKKNKEFKNFMKKMKNHECPTFQSVFK
On to B2, for which, in assay [1], the “reduction of tumor incidence” value is “at least one order of magnitude”.
